What was measured:
[1] = biological target: T1, UPO (unspecific peroxygenase), PaDa-I variant (Cyclocybe aegerita, UniProt B9W4V6, V100A/L110F/V118I/I291V/F354L); experiment: GC-MS product analysis (FFCA formed); type: biochemical; settings: 1.5 mM MMFA, 5 µM UPO, 1.5 mM H2O2; ether cleavage
T1 construct: gene APO1

[2] = substrate: O=Cc1ccc(C=O)o1; experiment: purified protein; settings: O2 co-substrate (air), sodium phosphate pH 7.0 (50 mM in Table 1, 100 mM in Methods), 25 °C
[3] = substrate: COCc1ccc(C=O)o1; experiment: purified protein; type: biochemical, Pleurotus eryngii; settings: O2 co-substrate (air), sodium phosphate pH 7.0 (50 mM in Table 1, 100 mM in Methods), 25 °C
[4] = substrate: O=Cc1ccc(CO)o1; experiment: purified protein; type: biochemical, Pleurotus eryngii; settings: O2 co-substrate (air), sodium phosphate pH 7.0 (50 mM in Table 1, 100 mM in Methods), 25 °C

T1 sequence (B9W4V6 44-371 V100A/L110F/V118I/I291V/F354L): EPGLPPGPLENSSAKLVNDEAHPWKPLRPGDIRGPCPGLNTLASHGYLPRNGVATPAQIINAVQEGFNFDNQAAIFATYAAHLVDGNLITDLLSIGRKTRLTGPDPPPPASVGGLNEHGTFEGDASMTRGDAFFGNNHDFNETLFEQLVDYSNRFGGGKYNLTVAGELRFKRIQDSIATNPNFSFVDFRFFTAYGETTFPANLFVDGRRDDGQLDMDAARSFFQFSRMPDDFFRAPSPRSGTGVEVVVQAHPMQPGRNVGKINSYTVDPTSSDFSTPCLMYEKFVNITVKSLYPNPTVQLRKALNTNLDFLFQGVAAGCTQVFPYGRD

In the case of `COCc1ccc(C(=O)O)o1` [MMFA, 5-(Methoxymethyl)-2-furancarboxylic acid], the “GC-MS product analysis (FFCA formed)” value [1] is reported as “UPO is indeed capable to cleave the ether bond of MMFA”.

B1: AAO (aryl-alcohol oxidase) (Pleurotus eryngii) (protein)
chain: ADFDYVVVGAGNAGNVVAARLTEDPDVSVLVLEAGVSDENVLGAEAPLLAPGLVPNSIFDWNYTTTAQAGYNGRSIAYPRGRMLGGSSSVHYMVMMRGSTEDFDRYAAVTGDEGWNWDNIQQFVRKNEMVVPPADNHNTSGEFIPAVHGTNGSVSISLPGFPTPLDDRVLATTQEQSEEFFFNPDMGTGHPLGISWSIASVGNGQRSSSSTAYLRPAQSRPNLSVLINAQVTKLVNSGTTNGLPAFRCVEYAEQEGAPTTTVCAKKEVVLSAGSVGTPILLQLSGIGDENDLSSVGIDTIVNNPSVGRNLSDHLLLPAAFFVNSNQTFDNIFRDSSEFNVDLDQWTNTRTGPLTALIANHLAWLRLPSNSSIFQTFPDPAAGPNSAHWETIFSNQWFHPAIPRPDTGSFMSVTNALISPVARGDIKLATSNPFDKPLINPQYLSTEFDIFTMIQAVKSNLRFLSGQAWADFVIRPFDPRLRDPTDDAAIESYIRDNANTIFHPVGTASMSPRGASWGVVDPDLKVKGVDGLRIVDGSILPFAPNAHTQGPIYLVGKQGADLIKADQ
Work on B1 yielded a Km [2] of 3.3 ± 0.2 mM, a kcat [2] of 0.523 s⁻¹ and a kcat/Km [2] of 157 M⁻¹ s⁻¹. It also gave a Km [3] of 60.8 ± 5.5 mM, a kcat [3] of 0.263 ± 0.01 s⁻¹ and a kcat/Km [3] of 5.83 ± 0.333 M⁻¹ s⁻¹. For the same molecule, the Km [4] was 1.6 ± 0.2 mM, the kcat [4] was 0.335 ± 0.01 s⁻¹ and the kcat/Km [4] was 215 ± 20 M⁻¹ s⁻¹.
